From US20210380680A1 (ZLLP, published 2021) come the findings set out here.

Changes are numbered by the printed parent chain. Numbers in names are those of the source.

The labels stand for the following.
B1: hz282-11 (antibody, V domains shown)
VH: QVQLQESGPGLVKPSETLSLTCTVSGFSLTSYNVYWIRQPPGKGLEWIGVIWNTGATRYNSALKSRVTISKDTSKSQVSLKLSSVTAADTAVYYCARDSAMPAIPFAYWGQGTLVTVSS
VL: DIQMTQSPSSLSASVGDRVTITCKSSQSLFGSVRQKNYLAWYQQKPGKAPKLLIYLASTRESGVPSRFSGSGSGTDFTLTISSLQPEDFATYYCQQYYDIPWTFGGGTKVEIK
notes: humanized IgG; constant regions not specified; also called humanized 282A12(T62A) (hz282-11)
B2: 413H9F8-H1L1 (antibody, V domains shown)
VH: EVQLVESGGGLVQPGGSLRLSCAASGFTFSSFGMHWVRQAPGKGLEWVSYISSGSSPIYYVDKLKGRFTISRDNAKNSLYLQMNSLRAEDTAVYYCARAGYAVRNALDYWGQGTLVTVSS
VL: DIVMTQSPDSLAVSLGERATINCKSSQSLLNVGNQKNYLAWYQQKPGQPPKLLIYGASTRESGVPDRFSGSGSGTDFTLTISSLQAEDVAVYYCQNDLFYPLTFGGGTKVEIK
notes: humanized IgG; constant regions not specified
B3: 413H9F8-H1L3 (antibody, V domains shown)
VH: B2 VH
VL: B2 VL with S69I, Y93F
notes: as for B2
B4: 413H9F8-H2L1 (antibody, V domains shown)
VH: B2 VH with S49A
VL: B2 VL
notes: as for B2
B5: hz282-15 (antibody, V domains shown)
VH: B1 VH
VL: B1 VL with A49S, S66D, T91K
notes: as for B2
B6: hz282-20 (antibody, V domains shown)
VH: B1 VH with S25A
VL: B1 VL with Q3V, T22N, A49S, S66D, T91K
notes: as for B2
B7: 413H9F8-cp1 (antibody, V domains shown)
VH: B2 VH
VL: EIVMTQSPPTLSLSPGERVTLSCKSSQSLLNVGNQKNYLAWYQQKPGQAPRLLIYGASTRESGIPARFSGSGSGTDFTLTISSLQPEDFAVYYCQNDLFYPLTFGGGTKVEIK
notes: as for B2
B8: 364D1A7-H1L1 (antibody, V domains shown)
VH: EVQLVESGGGLVQPGGSLRLSCAASGFTFSSFGMHWVRQAPGKGLEWVSYISSGSGSIYYADTVKGRFTISRDNAKNSLYLQMNSLRAEDTAVYYCATSYYYGNALEYWGQGTTVTVSS
VL: B2 VL with L30F, A40T, G56W, E61K, D97V, L98Y, F99S
notes: as for B2
B9: 364D1A7-H3L1 (antibody, V domains shown)
VH: B8 VH with S49A, I70L, A75P
VL: B2 VL with L30F, A40T, G56W, E61K, D97V, L98Y, F99S
notes: as for B2
B10: 357B8F8-VH-S61I-VL-S32I (antibody, human IgG1, kappa, V domains shown)
VH: QVQLKESGPGLVAPSQSLSITCTVSGFSLTSYGVHWVRQPPGKGLEWLGVIWPGGNTNYNIALMSRLSISKDNSKSQVFLKMNSLQTDDTAMYYCARDRRLAMDYWGQGTSVTVSS
VL: DIVMTQSPSSLTVTAGEKVTMTCKSSQSLLNIGNQKNYLTWYQQKPGQPPKLLIYWASTRESGVPDRFTGSGSGTDFTLTISILQAEDLAVYYCQNDYSYPFTFGSGTKLEIKR
B11: 364D1A7-VL-S32L (antibody, human IgG1, kappa, V domains shown)
VH: DVQLVESGGGLVQPGGSRKLSCAASGFTFSSFGMHWVRQAPEKGLEWVAYISSGSGSIYYADTVKGRFTLSRDNPKNTLFLQMTSLRSEDTAIYYCATSYYYGNALEYWGQGTSVTVSS
VL: DVVLTQSPSSLTVTEGEKVSMSCKSSQSLFNLGNQKNYLTWYQQKPGQTPTLLIYWASTRKSGVPDRFTGSGSGTDFTLTINTVQAEDLAVYYCQNVYSYPLTFGAGTKLDLKR
B12: 413H9F8-VL-S32L (antibody, human IgG1, kappa, V domains shown)
VH: DVQLVESGGGSVQPGGSRRLSCAASGFTFSSFGMHWVRQAPEKGLEWVAYISSGSSPIYYVDKLKGRFTVSRDNPKNTLFLQMTSLRSEDTAMYYCARAGYAVRNALDYWGQGTSITVSS
VL: DIVMTQSPSSLSVSVGEKVTLSCKSSQSLLNLGNQKNYLAWYQQKTGQPPKLLIYGASTRESGVPDRFIGSGSGTDFTLTISSVQAEDLAVYFCQNDLFYPLTFGAGTKLELKR
B13: Xi282A12F3(T62A)-V2-DL (antibody, V domains shown)
VH: QVQLKESGPVLVQPSQTLSLTCTVAGFSLTSYNVYWVRQPPGKGLEWMGVIWNTGATRYNSALKSRLSISKDTSKSQVFLKMNSLQTEDTATYYCARDSAMPAIPFAYWGQGTLVTVSS
VL: DIVMTQSPSSLAVSAGETVTINCKSSQSLFGSVRQKNYLAWYQQKPGQSPKLLIYLASTRESGVPDRFIGSGSGTDFTLTISSVQAEDLAKYYCQQYYDIPWTFGGGTKLELK
B14: 413H9F8-VL-S32V-V2-DL (antibody, V domains shown)
VH: B12 VH
VL: DIVMTQSPSSLSVSVGEKVTLSCKSSQSLLNVGNQKNYLAWYQQKTGQPPKLLIYGASTRESGVPDRFIGSGSGTDFTLTISSVQAEDLAVYFCQNDLFYPLTFGAGTKLELK
B15: hz282-11-V2 (antibody, V domains shown)
VH: B1 VH
VL: B1 VL
B16: hz282-15-V2 (antibody, V domains shown)
VH: B1 VH
VL: B1 VL with A49S, S66D, T91K

One experiment has as its target T1, human Claudin 18.2 (CLDN18.2) (human, UniProt P56856-2 1-261).
T1 construct: whole, on cells; recombinantly expressed on CHO, HEK293, NCI-N87, NUGC4 or PANC-1 cells; also called CHO-CLDN18.2
Nature of the experiment: FACS on CHO-CLDN18.2 cells.
Consider B1, for which the midpoint of the response, the EC50, lay at 3.17 nM. That is a single-digit nanomolar value.
Molecule B2 gave an EC50 of 2.31 nM.
The same measure, in the same setting: as for B3, the figure is 2.38 nM.
The molecule B4 displayed an EC50 of 2.43 nM.

For the next experiment, the target named is T1, human Claudin 18.2 (CLDN18.2). The experiment is described as follows: FACS Exp. 2, MFI ratio CHO-18.2 over CHO-18.1.
Turning to B1, the “MFI_CHO-18.2/CHO-18.1 (@30 ug/ml)” value came to 2000.
Same read-out and setting: as for B5, the figure is 2020; as for B6, 987.

For another experiment the target is unchanged. Nature of the experiment: cell-based or functional assay.
B7: the “% ADCC @ 6.67 nM, NCI-N87-CLDN18.2, FcR-TANK” value (“% ADCC @ 6.67 nM” below) amounted to 13.3% and the “ADCC EC50, NCI-N87-CLDN18.2, FcR-TANK” value worked out at 0.44 nM.
B8: the “% ADCC @ 6.67 nM” value amounted to 13.5% and the “ADCC EC50, NCI-N87-CLDN18.2, FcR-TANK” value amounted to 0.4 nM.
For B9, in that order: 10.8% and 0.41 nM.
Taken in the same sequence, the figures for B2 were 15.1% and 0.47 nM.
Taken in the same sequence, the figures for B3 were 16.3% and 0.37 nM.
Regarding B4, the “% ADCC @ 6.67 nM” value stood at 14.1% and the “ADCC EC50, NCI-N87-CLDN18.2, FcR-TANK” value was 0.31 nM.
Take B10: the “% ADCC @ 6.67 nM” value was determined as 2.3% and the “ADCC EC50, NCI-N87-CLDN18.2, FcR-TANK” value was 1.81 nM.

The next experiment has the same target. Nature of the experiment: cell-based or functional assay. The source holds these as a separate data set.
Take B11: the “ADCC EC50, NCI-N87-18.2 cells, FcR-TANK effectors” value was found to be 9.56 nM.
Same read-out and setting: with B12 the figure was 8.56 nM; with B10, 159 nM.

The target is the same in another experiment. The experiment is described as follows: cell-based or functional assay. The source holds these as a separate data set.
As to B7, the “CDC EC50, human serum, CHO-CLDN18.2” value worked out at 1.66 nM.
Same read-out and setting: as for B8, the figure is 1.48 nM; as for B9, 1.28 nM; as for B2, 0.78 nM.
The same measure, in the same setting: as for B3, the figure is 1.07 nM; as for B4, 1.06 nM.

Another experiment has the same target. Nature of the experiment: FACS on CHO-CLDN18.2 cells. The source holds these as a separate data set.
B1 had an EC50 of 2.75 nM. This lies in the single-digit nanomolar range.
The same measure, in the same setting: as for B8, the figure is 3.5 nM.
Molecule B9 yielded an EC50 of 4.22 nM.

The target is the same in a further experiment. Nature of the experiment: cell-based or functional assay. This is another data set of the same source.
As for B7, the “% specific cytotoxicity @ 6.67 nM, NUGC4-CLDN18.2, PBMC” value (shortened to “% specific cytotoxicity @ 6.67 nM”) worked out at 31.5% and the “ADCC EC50, NUGC4-CLDN18.2, PBMC” value came out at 7.18 nM.
As to B8, the “% specific cytotoxicity @ 6.67 nM” value was determined as 26.7% and the “ADCC EC50, NUGC4-CLDN18.2, PBMC” value stood at 13.3 nM.
Consider B9, for which the “% specific cytotoxicity @ 6.67 nM” value was found to be 26.2% and the “ADCC EC50, NUGC4-CLDN18.2, PBMC” value was found to be 11.3 nM.
For B2, the “% specific cytotoxicity @ 6.67 nM” value amounted to 27% and the “ADCC EC50, NUGC4-CLDN18.2, PBMC” value came out at 8.98 nM.
Regarding B3, the “% specific cytotoxicity @ 6.67 nM” value was 34.6% and the “ADCC EC50, NUGC4-CLDN18.2, PBMC” value turned out to be 4.38 nM.
For B4, in that order: 34.3% and 5.97 nM.

For another experiment the target is unchanged. Nature of the experiment: FACS Exp. 1, MFI ratio CHO-18.2 over CHO-18.1.
Regarding B1, the “MFI_CHO-18.2/CHO-18.1 (@30 ug/ml)” value was 1190.
On the same count and under the same terms, with B5 the figure was 1380.
B6: the “MFI_CHO-18.2/CHO-18.1 (@30 ug/ml)” value was 981.

For another experiment the target is unchanged. The experiment is described as follows: cell-based or functional assay. This is another data set of the same source.
B13: the “% internalization, NCI-N87-CLDN18.2, 37 C 2 h” value was > 50% and the “% internalization, NUGC4-CLDN18.2, 37 C 2 h” value was > 80%.
In the case of B14, the “% internalization, NCI-N87-CLDN18.2, 37 C 2 h” value is < 30% and the “% internalization, NUGC4-CLDN18.2, 37 C 2 h” value is < 15%.
Taken in the same sequence, the figures for B15 were > 50% and > 80%.
In the case of B16, the “% internalization, NCI-N87-CLDN18.2, 37 C 2 h” value was > 50% and the “% internalization, NUGC4-CLDN18.2, 37 C 2 h” value was > 80%.

The next experiment has the same target. Nature of the experiment: cell-based or functional assay. The source holds these as a separate data set.
In the case of B10, the “% specific cytotoxicity @ 6.67 nM” value worked out at 19.6% and the “ADCC EC50, NUGC4-CLDN18.2 cells, PBMC” value turned out to be 4.87 nM.

For another experiment the target is unchanged. Nature of the experiment: FACS on CHO-CLDN18.2 cells. This is another data set of the same source.
The molecule B7 gave an EC50 of 2.6 nM.
The molecule B1 had an EC50 of 3.68 nM.

Another experiment concerns the target T2, CLDN18.2 endogenously expressed on SNU620 gastric cancer cells (UniProt P56856-2 1-261, limits assumed).
T2 construct: whole, on cells; also called SU620
Nature of the experiment: FACS Exp. 3, SNU620 cells.
B1: the “MFI_SNU620 (@30 ug/ml)” value stood at 1340 MFI.
Same read-out and setting: as for B5, the figure is 1230 MFI; as for B6, 1240 MFI.
